Reference: patent US20250152742A1, “COMPOSITIONS AND METHODS FOR NEUROLOGICAL DISEASES” (Trames Bio, Inc., priority 2022, published 2025)

Assays:
Type in all cases: cell-based
[1] = test system: engineered chimeric receptor SEQ ID NO: 33 and its mutants (human α7-nAChR ligand binding domain / human GlyRα1 ion pore domain) in Lenti-X 293T cells; assay: YFP fluorescence quenching anion reporter plate reader assay (percent quench, EC50); settings: for YFP fluorescence quenching using CNL001 (percent quench): receptor named in row; for YFP fluorescence quenching using Varenicline, 3 nM var: ligand Varenicline 3 nM; for YFP fluorescence quenching using Varenicline, 30 nM var: ligand Varenicline 30 nM; for YFP fluorescence quenching using Varenicline, 300 nM var: ligand Varenicline 300 nM; for YFP fluorescence quenching using Varenicline, 500 nM var: ligand Varenicline 500 nM; for YFP fluorescence quenching using Varenicline, 1 uM var: ligand Varenicline 1 uM
How it was run: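 Lenti-X 293T cells co-expressing an anion-quenchable YFP were transiently transfected with receptor DNA, then ligand was added in NaI-substituted buffer (pH 7.2) after 30 min at 37 °C. Fluorescence was read about 2 min; percent quench = mean of last 10 s over 15 s pre-ligand baseline.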

rat hippocampal neurons [2] = assay: Evoked rheobase shift, rat hippocampal neurons (current clamp)
Method: No holding current was applied to the membrane for cells included in the final datasets. Data acquisition settings and analysis methods were the same as for the DRG rheobase experiments.
Hippocampal neurons: Hippocampal rheobase experiments were performed in current clamp mode using a potassium-based internal solution containing (in mM): 115 potassium D-gluconate (G4500), 13 potassium chloride (P9333), 1 magnesium chloride hexahydrate (M2670), 5 magnesium ATP (A9187), 10 HEPES (54457), and 0.5 EGTA (3777) (pH=7.2 with potassium hydroxide, osmolarity=290-295 mOsm, calculated liquid junction potential=−14.9 mV. NBQX (10 μM) and AP5 (50 μM) were included in the bath to block excitatory synaptic transmission. To measure HC input resistance and rheobase, 500 ms current steps (−200 pA to 700 pA) were applied the membrane in the presence and absence of a compound. No holding current was applied to the membrane for cells included in the final datasets. Data acquisition settings and analysis methods were the same as for the DRG rheobase experiments.

rat hippocampal neurons [3] = assay: Spontaneous action potential firing rate, hippocampal neurons (current clamp)
Method: Spontaneous activity was recorded in gapfree mode, in the presence and absence of a compound. Data were acquired at 10 kHz, with Bessel filter at 2 kHz and series resistance compensation at 100%. No holding current was applied to the membrane. […] For Clampfit, threshold-based event detection was run separately for each epoch to detect action potentials. For the custom Python code, a peak-finding package was used to automatically detect action potentials (SciPy). For both methods, minimum height, average height, maximum height were measured and frequency was calculated as the number of events in the epoch divided by the length of time of the epoch. For Clampfit, the resting membrane potential was measured at 3 points between events and averaged for each epoch. […] For both methods, membrane potential was corrected for the calculated liquid junction potential. […]
Hippocampal spontaneous action potential experiments: Hippocampal spontaneous action potentials were recorded in current clamp mode using a potassium-based internal solution containing (in mM): 115 potassium D-gluconate (G4500), 13 potassium chloride (P9333), 1 magnesium chloride hexahydrate (M2670), 5 magnesium ATP (A9187), 10 HEPES (54457), and 0.5 EGTA (3777) (pH=7.2, osmolarity=290-295 mOsm, calculated liquid junction potential=−14.9 mV). Spontaneous activity was recorded in gapfree mode, in the presence and absence of a compound. […]

B1: CODA1140: engineered receptor: R101F, L131N, S172D in SEQ ID NO: 33 (protein)
chain: MRCSPGGVWLALAASLLHVSLQGEFQRKLYKELVKNYNPLERPVANDSQPLTVYFSLSLLQIMDVDEKNQVLTTNIWLQMSWTDHYLQWNVSEYPGVKTVFFPDGQIWKPDILLYNSADERFDATFHTNVNVNSSGHCQYLPPGIFKSSCPMDLKNFPMDVQTCKLKFGSWDYGGWSLDLQMQEADISGYIPNGEWDLVGIPGKRSERFYECCKEPYPDVTFTVTMRRRMGYYLIQMYIPSLLIVILSWISFWINMDAAPARVGLGITTVLTMTTQSSGSRASLPKVSYVKAIDIWMAVCLLFVFSALLEYAAVNFVSRQHKELLRFRRKRRHHKSPMLNLFQEDEAGEGRFNFSAYGMGPACLQAKDGISVKGANNSNTTNPPPAPSKSPEEMRKLFIQRAKKIDKISRIGFPMAFLIFNMFYWIIYKIVRREDVHNQ
modifications: synthetic sequence of chimeric LGIC
In the case of B1, the “YFP fluorescence quenching using CNL001 (percent quench)” value ([1]; 1 nM CNL001, first column so headed) is reported as 52.592%, the “YFP fluorescence quenching using CNL001 (percent quench)” value ([1]; 1 nM CNL001, second column so headed) is reported as 61.248% and the “YFP fluorescence quenching (percent quench)” value ([1]; 1 nM CNL002) is reported as 0.337%. For the same molecule, the “YFP fluorescence quenching using CNL001 (percent quench)” value ([1]; 10 nM CNL001, first column so headed) was 71.678%, the “YFP fluorescence quenching using CNL001 (percent quench)” value ([1]; 10 nM CNL001, second column so headed) was 71.881% and the “YFP fluorescence quenching (percent quench)” value ([1]; 10 nM CNL002) was 59.894%. The “YFP fluorescence quenching using CNL001 (percent quench)” value ([1]; 50 nM CNL001, first column so headed) was 73.807%, the “YFP fluorescence quenching using CNL001 (percent quench)” value ([1]; 50 nM CNL001, second column so headed) was 75.649% and the “YFP fluorescence quenching (percent quench)” value ([1]; 50 nM CNL002) was 76.501%. The “YFP fluorescence quenching using ABT-126 (percent quench)” value ([1]; 50 nM abt (ABT-126)) was −7.87%, the “YFP fluorescence quenching using CNL001 (percent quench)” value ([1]; 100 nM CNL001, first column so headed) was 76% and the “YFP fluorescence quenching using CNL001 (percent quench)” value ([1]; 100 nM CNL001, second column so headed) was 76.329%. The “YFP fluorescence quenching (percent quench)” value ([1]; 100 nM CNL002) was 79.03%, the “YFP fluorescence quenching using ABT-126 (percent quench)” value ([1]; 100 nM abt (ABT-126)) was −5.35% and the “YFP fluorescence quenching using ABT-126 (percent quench)” value ([1]; 300 nM abt (ABT-126)) was −3.67%. For the same molecule, the “YFP fluorescence quenching using CNL001 (percent quench)” value ([1]; 1 uM CNL001, first column so headed) was 76.168%, the “YFP fluorescence quenching using CNL001 (percent quench)” value ([1]; 1 uM CNL001, second column so headed) was 74.076% and the “YFP fluorescence quenching (percent quench)” value ([1]; 1 uM CNL002) was 82.85%. The “YFP fluorescence quenching using ABT-126 (percent quench)” value ([1]; 1 uM abt (ABT-126)) was 3.64%, the “YFP fluorescence quenching using ABT-126 (percent quench)” value ([1]; 10 uM abt (ABT-126)) was 5.91% and the “YFP fluorescence quenching (percent quench)” value ([1]; 10 uM ach (acetylcholine)) was −20.07%. The “YFP fluorescence quenching (percent quench)” value ([1]; 30 uM ach (acetylcholine)) was −16.92%, the “YFP fluorescence quenching (percent quench)” value ([1]; 100 uM ach (acetylcholine)) was −25.8% and the “YFP fluorescence quenching (percent quench)” value ([1]; 300 uM ach (acetylcholine)) was −11.21%. The “YFP fluorescence quenching (percent quench)” value ([1]; 1 mM ach (acetylcholine)) was 9.02%, the “YFP fluorescence quenching (percent quench)” value ([1]; 3 mM ach (acetylcholine)) was 45% and the “YFP fluorescence quenching using Varenicline, 3 nM var” value ([1]; first column) was −6.169. For the same molecule, the “YFP fluorescence quenching using Varenicline, 3 nM var” value ([1]; second column) was −10.445, the “YFP fluorescence quenching using Varenicline, 30 nM var” value ([1]; first column) was −9.679 and the “YFP fluorescence quenching using Varenicline, 30 nM var” value ([1]; second column) was −10.878. The “YFP fluorescence quenching using Varenicline, 300 nM var” value ([1]; first column) was −9.572, the “YFP fluorescence quenching using Varenicline, 300 nM var” value ([1]; second column) was −8.873 and the “YFP fluorescence quenching using Varenicline, 500 nM var” value ([1]; first column) was −14.656. For the same molecule, the “YFP fluorescence quenching using Varenicline, 500 nM var” value ([1]; second column) was −11.304, the “YFP fluorescence quenching using Varenicline, 1 uM var” value ([1]; first column) was −13.996 and the “YFP fluorescence quenching using Varenicline, 1 uM var” value ([1]; second column) was −16.128. The “Rheobase Shift Evoked; Rat Hippocampal Neurons, Baseline” value (rat hippocampal neurons [2]; baseline, no ligand) was 40.63 ± 10.50 pA, the “Rheobase Shift Evoked; Rat Hippocampal Neurons, +CNL002 @ EC90” value (rat hippocampal neurons [2]; ligand CNL002 at EC90) was 296.9 ± 72.65 pA and the “Firing Rate Spontaneous; Rat Hippocampal Neurons, Baseline” value (rat hippocampal neurons [3]; baseline, no ligand) was 3.29 ± 0.75 Hz. The “Firing Rate Spontaneous; Rat Hippocampal Neurons, +CNL002 @ EC90” value (rat hippocampal neurons [3]; ligand CNL002 at EC90) was 0.71 ± 0.29 Hz.
